Results reported in patent US20170072041A1 (OHIO STATE INNOVATION FOUNDATION, published 2017).

T1: native human DNase X (deoxyribonuclease 1-like 1) from THP-1 cell lysate (human, UniProt P49184 19-302, limits assumed)
T1 construct: GPI-anchored cell surface protein; also called DNase 1L1; DN1L1
T1 sequence (looked up): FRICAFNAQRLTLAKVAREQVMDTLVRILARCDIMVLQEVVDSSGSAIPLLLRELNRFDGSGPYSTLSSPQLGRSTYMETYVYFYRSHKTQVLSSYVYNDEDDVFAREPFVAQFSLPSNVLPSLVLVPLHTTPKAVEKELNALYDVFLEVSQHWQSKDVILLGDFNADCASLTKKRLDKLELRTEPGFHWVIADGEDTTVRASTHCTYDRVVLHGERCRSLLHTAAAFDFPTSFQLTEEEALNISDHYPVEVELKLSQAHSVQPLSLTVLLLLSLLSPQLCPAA

T2: mouse DNase X on wild-type bone marrow-derived macrophages (BMDMs) (mouse, UniProt Q9D7J6 38-314)
T2 construct: whole, on cells
T2 sequence: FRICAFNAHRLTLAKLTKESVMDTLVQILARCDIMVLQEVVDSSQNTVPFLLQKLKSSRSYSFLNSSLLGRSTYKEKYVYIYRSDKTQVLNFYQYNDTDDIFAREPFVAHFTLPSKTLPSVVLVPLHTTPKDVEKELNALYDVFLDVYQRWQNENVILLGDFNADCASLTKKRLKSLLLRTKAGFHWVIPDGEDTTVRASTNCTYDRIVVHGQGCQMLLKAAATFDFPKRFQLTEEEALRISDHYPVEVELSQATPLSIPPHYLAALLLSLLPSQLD

T3: human DNase X on the cell surface (HEK293 cells, human primary macrophages derived from peripheral blood … (human, UniProt P49184 19-302))
T3 construct: whole, on cells; Endogenous protein on non-permeabilised cells; also called cell surface-exposed DNase X; surface DNase X
T3 sequence: T1 sequence (looked up)

B1: rEtpE-C (recombinant C-terminal region of EtpE/ECH1038, residues 1656-1963, C-terminal histidine-tagged fusion protein) (ligand)
chain: ELLSLVGGHRNASSNNANNGRSLSQGIRYKITFKISFAQNYFPVDEIIKLQQDANNMEYGVHGVHRTDIIALWSYISYASSKSKWLFKRYQSFAGLLFEIGAWGKCTSAERVFFTSMNRYSEKLPLKVYNFIRKITTGDFARKFSGMQSLYTYKQRVYDYVMHCVLRGGLGGECSDMTLREISNELHKLKQEIYSNYDVFRDLGITNGQQEVLLLINVMMLNYAMSDLLVSTTQVNSMLADVRSSLSRTAHCLPYGTVSQLQRSVSHMKYGEYSNYRASVVALWACISCLASFNDDMEPLIKLMLEGD
notes: Used renatured on membrane or Ni matrix, or coated on 0.5 um latex beads; also called rEtpE-C-coated beads; not shown: C-terminal histidine tag from pET33b(+)

What was measured:
[1] = target: mouse DNase X on wild-type bone marrow-derived macrophages (BMDMs) (mouse) (UniProt Q9D7J6); test: cell-based or functional assay
[2] = target: T1, native human DNase X (deoxyribonuclease …); test: far-Western blot, THP-1 cell lysate, anti-DNase X
[3] = target: T2, mouse DNase X on wild-type bone …; test: bead binding to BMDMs of wild-type and DNase X-/- mice, 30 min at 4 C
[4] = target: T3, human DNase X on the cell surface …; test: immunofluorescence of non-permeabilised HEK293 cells incubated with coated beads

Row | Molecule | decrease in E. chaffeensis binding and entry into BMDMs at 4 h pi, DNase X-/- against wild type [1] [%] | binding result [2] | binding result [3] | binding result [4]
1 | native full-length EtpE (ECH1038, entry triggering protein of Ehrlichia) of E. chaffeensis Arkansas (ligand) | 60 | – | – | –
2 | B1 | – | binds | binds | binds
